According to IntAct's records for PubMed 22000412:

Biological target: bub1b_human BUB1B (UniProt O60566)
Sequence (O60566 whole entry): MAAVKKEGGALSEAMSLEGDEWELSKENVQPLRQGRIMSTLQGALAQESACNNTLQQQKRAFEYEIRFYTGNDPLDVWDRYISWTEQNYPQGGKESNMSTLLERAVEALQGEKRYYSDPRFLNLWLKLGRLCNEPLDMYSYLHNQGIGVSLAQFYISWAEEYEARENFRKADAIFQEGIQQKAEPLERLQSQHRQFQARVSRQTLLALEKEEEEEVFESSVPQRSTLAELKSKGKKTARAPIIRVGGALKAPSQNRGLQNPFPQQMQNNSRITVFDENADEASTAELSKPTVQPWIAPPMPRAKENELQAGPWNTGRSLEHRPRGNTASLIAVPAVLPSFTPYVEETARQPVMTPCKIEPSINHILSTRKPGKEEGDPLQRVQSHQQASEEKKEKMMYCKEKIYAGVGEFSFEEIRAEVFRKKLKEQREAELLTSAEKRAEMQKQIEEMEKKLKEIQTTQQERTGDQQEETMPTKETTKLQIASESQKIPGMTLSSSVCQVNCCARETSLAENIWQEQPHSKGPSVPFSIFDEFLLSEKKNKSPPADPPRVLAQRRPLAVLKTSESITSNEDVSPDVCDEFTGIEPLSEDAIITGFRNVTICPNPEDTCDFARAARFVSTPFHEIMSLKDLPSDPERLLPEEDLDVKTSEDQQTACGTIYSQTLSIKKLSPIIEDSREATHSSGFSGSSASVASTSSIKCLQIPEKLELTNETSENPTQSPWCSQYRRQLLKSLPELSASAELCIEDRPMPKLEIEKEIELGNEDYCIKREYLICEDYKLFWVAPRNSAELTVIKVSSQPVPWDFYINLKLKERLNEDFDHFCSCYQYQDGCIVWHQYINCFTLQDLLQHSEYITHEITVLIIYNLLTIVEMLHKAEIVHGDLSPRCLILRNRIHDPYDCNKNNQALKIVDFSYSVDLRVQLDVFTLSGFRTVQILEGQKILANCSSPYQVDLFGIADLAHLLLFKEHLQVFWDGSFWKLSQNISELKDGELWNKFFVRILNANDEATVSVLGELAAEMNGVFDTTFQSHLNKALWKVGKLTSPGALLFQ

Question: Which “effect of a mutation on the interaction” value does the source give for “Outer kinetochore KNL1 complex subunit KNL1 (Homo sapiens), Q8NG31-2 F215A;F218A” here?
Answer: The value was “disrupting interaction”.

Question: “Outer kinetochore KNL1 complex subunit KNL1 (Homo sapiens), Q8NG31-2 F215A;I219A” was tested. Which “effect of a mutation on the interaction” value did it give?
Answer: The value was “disrupting interaction”.

Question: For “Outer kinetochore KNL1 complex subunit KNL1 (Homo sapiens), Q8NG31-2 I213A;F215A;F218A”, which “effect of a mutation on the interaction” value is on record?
Answer: The value was “disrupting interaction”.
